In general, koff refers to the rate constant with which the complex falls apart. By kon is commonly meant the second-order rate constant of association. Broadly, the EC50 is the concentration at which the effect is half-maximal.

Read-outs that look alike come from different tables or passages of the source.

Test [1] addresses T1, recombinant human ROR1 protein (Fc-Tag, Acro Biosystems RO1-H5250) (human, UniProt Q01973 30-406).
T1 construct: Bought; also called hROR1; recombinant human ROR1 ECD; not shown: Fc tag
In words: SPR; hROR1-Fc immobilized.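 Also: biacore T200 SPR with ROR1 covalently coupled to a CM5 chip, analyte titration series, apparent rate and equilibrium constants fitted with a 1:1 Langmuir model.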 A general note: SPR reads the build-up and loss of mass on a sensor chip optically.

The target in test [2] is T2, recombinant human CD3 epsilon extra-cellular domain protein (His-Tag, SinoBiological) (human, UniProt P07766 23-126).
T2 construct: extracellular domain; Bought; also called hCD3ε; human CD3ε; not shown: His tag
The experiment in a line: SPR; hCD3ε immobilized, two-state fit (ka1).

Test [3] addresses T3, human ROR1 expressed on cells (human, UniProt Q01973 30-937).
T3 construct: whole, on cells; One molecule for cell-surface ROR1 on all cell lines; the cell line is named under assay; also called hROR1; plasma membrane human ROR1
The experiment in a line: flow cytometry, MDA-MB-231 cells, 1 mg/ml hSA. For orientation: A flow cytometer gives signals particle by particle.

Test [4] addresses T2, recombinant human CD3 epsilon …. In words: SPR; hCD3ε immobilized, two-state fit (kd1).
Test [5] has the same target. In words: SPR; hCD3ε immobilized, two-state fit.
The target of test [6] is T4, human serum albumin (Sigma-Aldrich A3782) (human, UniProt P02768 25-609).
T4 construct: also called hSA; HSA
The experiment in a line: SPR; hSA immobilized, pH 5.5.

Test [7] concerns the target T3, human ROR1 expressed on cells. The experiment in a line: flow cytometry, MDA-MB-231 cells, 1 mg/ml hSA. This is another data set of the same source.
Test [8] addresses T4, human serum albumin (Sigma-Aldrich …). In words: SPR; hSA immobilized, pH 5.5. The source holds these as a separate data set.
Test [9] has as its target T3, human ROR1 expressed on cells. The experiment in a line: flow cytometry, MDA-MB-231 cells, 1 mg/ml hSA. The source holds these as a separate data set.
The target in test [10] is T1, recombinant human ROR1 protein (Fc-Tag, …). In words: SPR; hROR1-Fc immobilized (Avidity).
The target in test [11] is T2, recombinant human CD3 epsilon …. The experiment in a line: SPR; hCD3ε immobilized, two-state fit (Ka1).
For test [12], the target named is T5, human ROR1 (Peprotech 160-054) (human, UniProt Q01973 30-406).
T5 construct: Bought, used as analyte; also called hROR1; recombinant human ROR1 protein
In words: SPR; MATCH4 captured, hROR1 analyte (Affinity).

Test [13] concerns the target T2, recombinant human CD3 epsilon …. In words: SPR; hCD3ε immobilized, two-state fit (kd1). The source holds these as a separate data set.
Test [14] has the same target. The experiment in a line: SPR; hCD3ε immobilized, two-state fit. This is another data set of the same source.

B1: PRO2286 (bispecific antibody)
chain: DVVMTQSPSSLSASVGDRVTITCQASQIISSRSAWYQQKPGQPPKLLIYQASKLASGVPSRFSGSGSGTDFTLTISSLQPEDFATYYCQCTYIDSNFGAFGCGTKLTVLGGGGGSEVQLVESGGGLVQPGGSLRLSCAASGFSLSSYDMSWVRQAPGKGLAWIGASYASGPTYYASWAKGRFTISRDNSKNTVYLQMNSLRAEDTATYFCARGGWTGTSHSNIWGQGTLVTVSSGGGGSGGGGSGGGGSGGGGSDIQMTQSPSSLSASVGDRVTITCQSSQSVFSNNYLAWFQQKPGQSPKRLIYSASTLASGVPSRFSGSGSGTDFTLTISSLQPEDFATYYCLGSYACSSADCYVFGTGTKVTVLGGGGGSEVQLVESGGGLVQPGGSLRLSCAASGFSFSSSYWICWVRQAPGKCLEWVGCVFTGDGTTYYASWAKGRFTISRDNSKNTVYLQMNSLRAEDTATYFCARPVSVYYYGMDLWGQGTLVTVSSGGGGSGGGGSAQQLTQSPSSLSASVGDRVTITCQASQNVWNNNYLSWFQQKPGKPPKLLIVTASTLASGVSSRFSGSGSGTDFTLTISSLQPEDFATYYCAGGFSGEIRAFGTGTKVTVLGGGGGSGGGGSGGGGSGGGGSQSQLVESGGGLVQPGGSLRLSCAVSGLSLSRNAMSWVRQAPGKGLEWIGIILTSGSTYYASWAKGRFTISKDNSKNTVYLQMNSLRAEDTAVYFCVRGIASSSLKSFWGQGTLVTVSS
notes: trispecific anti-ROR1 x hSA x CD3 scMATCH3, single chain; also called 23-13-A01-sc02 diS scDb-o/28-21-D09-sc04 scDb-i/55-39-G02-sc02-scFv
B1: in test [1], the Kd was 0.33 nM, the koff amounted to 0.00045 s⁻¹ and the kon was determined as 1.4e+06 M⁻¹ s⁻¹. For the same molecule, in [2], the on-rate constant (kon) was found to be 1.1e+06 M⁻¹ s⁻¹. In test [3], it took 1.33 nM to reach a half-maximal effect (EC50) and the “Rel. maximum binding (MFIscMATCH3/MFIPRO2213)” value stood at 1.87. For the same molecule, the koff in test [4] was 0.0027 s⁻¹. In test [5], the Kd came to 1.5 nM, the ka2 was determined as 0.00069 s⁻¹ and the kd2 is 0.0011 s⁻¹. In test [6], this molecule displayed a Kd of 0.062 nM, a koff of 6.7e-05 s⁻¹ and a kon of 1.1e+06 M⁻¹ s⁻¹. Also, in test [7], the “fold lower EC50 binding than parental scFv PRO2062” value was approximately 5 fold.

B2: PRO2658 (bispecific antibody)
chain 1: AQQLTQSPSSLSASVGDRVTITCQASQNVWNNNYLSWFQQKPGKPPKLLIVTASTLASGVSSRFSGSGSGTDFTLTISSLQPEDFATYYCAGGFSGEIRAFGTGTKVTVLGGGGGSGGGGSGGGGSGGGGSQSQLVESGGGLVQPGGSLRLSCAVSGLSLSRNAMSWVRQAPGKGLEWIGIILTSGSTYYASWAKGRFTISKDNSKNTVYLQMNSLRAEDTAVYFCVRGIASSSLKSFWGQGTLVTVSSGGGGSGGGGSAFELTQSPSSLSASVGDRVTITCQASESINSRLAWYQQKPGQPPKLLIYDASDLTSGVPSRFSGSGSGTDFTLTISSLQPEDFATYYCQGYGGSSTTTFGCGTKLTVLGGGSGGSDIQMTQSPSSLSASVGDRVTITCQSSQSVFSNNYLAWFQQKPGQSPKRLIYSASTLASGVPSRFSGSGSGTDFTLTISSLQPEDFATYYCLGSYACSSADCYVFGTGTKVTVLG
chain 2: AQQLTQSPSSLSASVGDRVTITCQASQNVWNNNYLSWFQQKPGKPPKLLIVTASTLASGVSSRFSGSGSGTDFTLTISSLQPEDFATYYCAGGFSGEIRAFGTGTKVTVLGGGGGSGGGGSGGGGSGGGGSQSQLVESGGGLVQPGGSLRLSCAVSGLSLSRNAMSWVRQAPGKGLEWIGIILTSGSTYYASWAKGRFTISKDNSKNTVYLQMNSLRAEDTAVYFCVRGIASSSLKSFWGQGTLVTVSSGGGGSGGGGSEVQLVESGGGLVQPGGSLRLSCAASGFSLSSYDMSWVRQAPGKGLAWIGASYASGPTYYASWAKGRFTISRDNSKNTVYLQMNSLRAEDTATYFCARGGWTGTSHSNIWGQGTLVTVSSGGGSGGGSGGGSGEVQLVESGGGLVQPGGSLRLSCAASGFSLSSYAMNWVRQAPGKCLEWIGHINAGDIAYYATWAKGRFTISRDNSKNTVYLQMNSLRAEDTAVYFCARGAGGFSTGPFKLWGQGTLVTVSS
notes: heterodimeric MATCH4
For the molecule B2, the binding result in test [7] was “binds”.

B3: PRO2670 (bispecific antibody)
chain 1: DVQMTQSPSSLSASVGDRVTITCRASENIYSGLAWYQQKPGKPPKLLIYRASTLASGVSSRFSGSGSGTDFTLTISSLQPEDFATYYCQGGYYSSSSTYIAFGCGTKVTVLGGGGGSGGGGSGGGGSGGGGSQSQVVESGGGRVQPGGSLRLSCAVSGFDLSSYAVSWVRQAPGKCLEWIGIIYPRANTYYASWAKGRFTISKDNSKNTVYLQMNSLRAEDTATYFCARDRYDSGAYLYTTYFNLWGQGTQVTVSSGGGGSGGGGSAFELTQSPSSLSASVGDRVTITCQASESINSRLAWYQQKPGQPPKLLIYDASDLTSGVPSRFSGSGSGTDFTLTISSLQPEDFATYYCQGYGGSSTTTFGCGTKLTVLGGGSGGSDIQMTQSPSSLSASVGDRVTITCQSSQSVFSNNYLAWFQQKPGQSPKRLIYSASTLASGVPSRFSGSGSGTDFTLTISSLQPEDFATYYCLGSYACSSADCYVFGTGTKVTVLG
chain 2: DVQMTQSPSSLSASVGDRVTITCRASENIYSGLAWYQQKPGKPPKLLIYRASTLASGVSSRFSGSGSGTDFTLTISSLQPEDFATYYCQGGYYSSSSTYIAFGCGTKVTVLGGGGGSGGGGSGGGGSGGGGSQSQVVESGGGRVQPGGSLRLSCAVSGFDLSSYAVSWVRQAPGKCLEWIGIIYPRANTYYASWAKGRFTISKDNSKNTVYLQMNSLRAEDTATYFCARDRYDSGAYLYTTYFNLWGQGTQVTVSSGGGGSGGGGSEVQLVESGGGRVQPGGSLRLSCAASGFSLSSYDMSWVRQAPGKGLAWIGASYASGPTYYASWAKGRFTISRDNSKNTVYLQMNSLRAEDTATYFCARGGWTGTSHSNIWGQGTQVTVSSGGGSGGGSGGGSGEVQLVESGGGRVQPGGSLRLSCAASGFSLSSYAMNWVRQAPGKCLEWIGHINAGDIAYYATWAKGRFTISRDNSKNTVYLQMNSLRAEDTATYFCARGAGGFSTGPFKLWGQGTQVTVSS
notes: heterodimeric MATCH4, modified VH domains, optimized variant of PRO2590; also called MATCH4 with 55-38-D07-sc06(RTQ) / 19-04-A10-sc02(RTQ) diS / 28-21-D09-sc04(RTQ) / 55-38-D07-sc06(RTQ); RPO2670
In test [8], B3 returned a Kd of 3.5 nM, a koff of 0.0013 s⁻¹ and a kon of 370000 M⁻¹ s⁻¹. For the same molecule, in test [9], it took 0.85 nM to reach a half-maximal effect (EC50); the “Rel. maximum binding (MFIMATCH4/MFIPRO2213)” value was determined as 2.68; the “rel. EC50 (EC50, PRO2213/EC50, MATCH4)” value came out at 0.39. In test [10], the Kd came out at 0.11 nM, the koff was 8.1e-05 s⁻¹ and the kon was found to be 760000 M⁻¹ s⁻¹. Moreover, the kon in test [11] was determined as 820000 M⁻¹ s⁻¹. Besides, in [12], the Kd came out at 2.87 nM, the koff came out at 0.000132 s⁻¹ and the kon turned out to be 46000 M⁻¹ s⁻¹. In [13], the koff worked out at 0.0048 s⁻¹. In test [14], the Ka2 was found to be 0.0054 s⁻¹, the Kd worked out at 2.7 nM and the Kd2 is 0.0047 s⁻¹.

B4: PRO2287 (bispecific antibody)
chain: DIQMTQSPSSLSASVGDRVTITCQSSESVYSNNQLSWYQQKPGQPPKLLIYDASDLASGVPSRFSGSGSGTDFTLTISSLQPEDFATYYCAGGFSSSSDTAFGCGTKLTVLGGGGGSEVQLVESGGGLVQPGGSLRLSCAASGFSLSSYDMSWVRQAPGKGLAWIGASYASGPTYYASWAKGRFTISRDNSKNTVYLQMNSLRAEDTATYFCARGGWTGTSHSNIWGQGTLVTVSSGGGGSGGGGSGGGGSGGGGSDIQMTQSPSSLSASVGDRVTITCQSSQSVFSNNYLAWFQQKPGQSPKRLIYSASTLASGVPSRFSGSGSGTDFTLTISSLQPEDFATYYCLGSYACSSADCYVFGTGTKVTVLGGGGGSEVQLVESGGGLVQPGGSLRLSCAASGFSLSSNAMGWVRQAPGKCLEYIGIISVGGFTYYASWAKGRFTISRDNSKNTVYLQMNSLRAEDTATYFCARDRHGGDSSGAFYLWGQGTLVTVSSGGGGSGGGGSAQQLTQSPSSLSASVGDRVTITCQASQNVWNNNYLSWFQQKPGKPPKLLIVTASTLASGVSSRFSGSGSGTDFTLTISSLQPEDFATYYCAGGFSGEIRAFGTGTKVTVLGGGGGSGGGGSGGGGSGGGGSQSQLVESGGGLVQPGGSLRLSCAVSGLSLSRNAMSWVRQAPGKGLEWIGIILTSGSTYYASWAKGRFTISKDNSKNTVYLQMNSLRAEDTAVYFCVRGIASSSLKSFWGQGTLVTVSS
notes: trispecific anti-ROR1 x hSA x CD3 scMATCH3, single chain; also called 19-01-H04-sc02/3 diS scDb-o/28-21-D09-sc04 scDb-i/55-39-G02-sc02 scFv
As to B4, in [1], the Kd came to 0.32 nM, the koff worked out at 0.0004 s⁻¹ and the kon was found to be 1.3e+06 M⁻¹ s⁻¹. In addition, the kon in [2] came out at 870000 M⁻¹ s⁻¹. In test [3], the EC50 is 1.83 nM and the “Rel. maximum binding (MFIscMATCH3/MFIPRO2213)” value came to 1.98. Further, the off-rate constant (koff) in test [4] worked out at 0.0034 s⁻¹. In addition, in test [5], the Kd was determined as 2.1 nM, the ka2 was determined as 0.0017 s⁻¹ and the kd2 is 0.002 s⁻¹. Besides, in test [7], the “fold lower EC50 binding than parental scFv PRO2062” value is approximately 5 fold.
